# Test results: the DeepSol protein solubility set
# Test: soluble on expression in E. coli; label from the status in PepcDB or PDB records
row,Sequence,soluble on expression in E. coli
1,MRILHTADWHLGKTLEGRSRLSEQADVLDELNTIVKDEQIDAIVMAGDAFDTVNPPALAEQLFYESLSALSDRGKRPIVVIAGNHDNPDRLSAASPLTHENGIHLIGYPTTEPIHIEVPSAGELLAVGALAYPSEARLNEVLSDTFDEKLLRDHYDVKIRQAFEHMTSRFRTDAVKIAASHIYVAGGNQTDSDGPIEVGGAYTVAAESLPADAAYVALGHLHRPQTIKRARTLARYSGSPLAYSFSEAGYAKSVTIVDAKPGEEATWQEVLLSSGKPLVKWKAANGLSEVYSWLDEGRDQNAWIDLEIRVADQLSLEEIHRLRKAHPGFIHIRPVFEEQNKDRERIEVKHVSIEDRFKKFYEKQTGGAVPDEEMVRLFLELASGVEEEDAK,not soluble
2,MGSDKIHHHHHHMVTLVRQVEIQPYQPKYAQAVSELFHLCVHNIEHERYSQAQLNAWSKAPRSAKHWHLRLSRSQAWIILVTSTESLSKICVGFINVETDYYHRGYIDSFYIHPDWQRQGVGGRVYCELEQWARGQGYASLSVDASYLSKGLFTQLGFVQIQRNYQQKLGQVLTSFYMTKKL,not soluble
3,MSLNLTFKKKSFFFKLSSKVDNSNTTYNYKSGWIIKLKNIEKGVGFGEVNPLRKHDLDACQIQLNQIPKYVNSKNISELIKNFHPCIQSAINSALAEIERKINFQENYYFNEIDQTAILLDPHNALKELIILKGNKLLNKKSLTIKWKVGIQDNFSEEKTLIEILNHLKSNIKLRIDANGSWERETANRWVDILKDIENIDWLEQPLSKDDIEGLKELNKKMPIALDESLLKYPYLINEWDGWQIRRPSQERNPMQLLKELKDKKGFRSLSTSFETGIGRRWLFHLSSLQLLGLTPKVPGLALKKNPNSFLFQNDAQKIWDQLEGHHHHHH,not soluble
4,MGGLYVSNFYGIFYSSNSESSTTLVDFCKYNAEIVEQTIFLEFVEFSNESIIFLKNLYSKMVNNSNFNIKKKFFHRKNSVTVYSNFLNFSKNLVKKFGV,not soluble
5,MGFYQGPDNRKITGGLKGKHRDKRKYEIGNPPTFTTLSAEDIRIKDRTLGGNFKVRLKYTTTANVLDPATNTAKKVKILEILETPANKELARRGIIIRGAKIRTEAGLAVVTSRPGQDGVINAVLLKNESQRS,soluble
6,GNLSFLATSDGASLAYRLDGAAEKPLLALSNSIGTTLHMWDAQLPALTRHFRVLRYDARGHGASSVPPGPYTLARLGEDVLELLDALEVRRAHFLGLSLGGIVGQWLALHAPQRIERLVLANTSAWLGPAAQWDERIAAVLQAEDMSETAAGFLGNWFPPALLERAEPVVERFRAMLMATNRHGLAGSFAAVRDTDLRAQLARIERPTLVIAGAYDTVTAASHGELIAASIAGARLVTLPAVHLSNVEFPQAFEGAVLSFLGA,not soluble
7,MVDQGILRLRQKDASLEFGPPRRRTTVVNWYQERHGTRLTKPEWPLAFVCRNPGTCLQIELVTVMII,not soluble
8,MSLRDGKHIRTKLTPQKDRGESSYRIGLYIRDSAAGIGTMTFVHPDSMKYGALGHVISDNDTKKPIQVEDGQIMRSTVTSIERGSHGNPGEKLARFSPDREVIGNITINSPFGIFGKLNTNMTNGVMDKAMPIALSHQVKEGPAKILTVIDQDKVEAFDIEVVSTVPQKFPATKGMVIKVTDKRLLAKTGGIVQGMSGSPIVQNGKVIGAVTHVFVNDPTSGYGVHIEWMLHEAGINIYDQERKASEGHHHHHH,soluble
9,MKIRQEKPAEYQAVERLTYQAFKELNLTENWRPTEHFIVHLLRESADFIPELSLVSETDQGKLTGHIMSSKAKLRLPDHTEKAVLTVGPLSVHPEAQNTGVGSALIKHSVQKAKELGIGGLIILGHPTYYTKFGFVPATTFQITLPEKETSEALLALELLPGYFGTSGGEWHFSTCFAYPETHPAELEAFEAELGINE,not soluble
10,MAHHHHHHMNQVIRSRTDWKERVVLRLAWITASRWSEIAALTPNNLKLKTDGTLILYWPVAPKTARTDPHRASRFVRIRGQDAFDIIKLCRTLQHIEKLTNLTTARVERALAPWNATAHSIRRGALRHAAQIVEAYNLNPHVISQLAKHVDPFDLPQNTVRYLGNCTTMLTQVLSLVALM,not soluble
11,MTLEIRPAVPADAEQILAFIIELADYERARHEVVTDVEGIRRSLFAEGSPTRALMCLSEGRPIGYAVYFYSYSTWLGRNGIYLEDLYVTPEYRGVGAGRRLLRELAREAVANDCGRLEWSVLDWNQPAIDFYRSIGALPQDEWVRYRLDGEALRKMAE,soluble
12,SAASKLQAFWNHPAGPKTIHFWAPTFKWGISIANVADFAKPPEMISYPQQVVVACSGVIWARWGMVITPINWNLSSVNAAMAVTGVCQLSRKIRHDYFSDEKSATASLEG,soluble
13,MKVVVIGGGWSGVAAAIEAKKMGADVVLFEKTDLLLGLGNVGGIMRNNGRYTASEELIAMGGGDLINITDKVSRHKDIPFPGHEHAWLYDVNLVEGEVKRYVESLGIETKMVSRIIDIKQEDNKILGVYTSDGQYYNGDVFIETTGSTGPMGNCLRYGNGCSMCILRCPSFGPRISISSRCGVEDIQGERVGDELGAFSGSCKLAKETLSEEIRKELEEKGCVVLKIPKEDVNYDKLNTKVCQQYALKEFAENVVLLDTGHAKLMTTYYPLEKLRKIKGLENAKYVDPYAGGKGNSIRYLSVAPRDDNMKVKGVTNLFCAGEKSGLFVGHTEAIVTGTLAGHNAVRHALGIPYLILPRATVLGDIIAFANEESQSREGKKNRYTFAGSVYFNRMKELGLYTIDKDEIQKRVAQLNLDGVFSKKLMLEHHHHHH,not soluble
14,MSVDPNLLTPYKNTGAANASLRQISEDAFYVVNEVVMKRLGHVPILKGDFHLLPAKVQRFIAEKAELMRPRGIFICDGSQHEADELIDKLIERGMLSKLEAYENNYICRTDPKDVARVESKTWMVTKNKYDTVTHTKEGVEPIMGHWLAPEDLATELDSRFPGCMAGRIMYVIPFSMGPVGGPLSKIGIQLTDSNYVVLSMRIMTRVNNDVWDALGNQDFVRCIHSVGLPRPVKQRVINHWPCNPERVLIAHRPPEREIWSFGSGYGGNSLLGKKCFALRIASNIAKDEGWMAEHMLIMGVTRPCGREHFIAAAFPSACGKTNLAMLEPTLPGWKVRCVGDDIAWMKFGEDGRLYAINPEAGFFGVAPGTSNKTNPMAVATFQKNSIFTNVAETANGEYFWEGLEDEIADKNVDITTWLGEKWHIGEPGVAAHPNSRFAAPANQCPIIHPDWESPQGVPIEAIIFGGRRPQGVPLIYETNSWEHGVFTGSCLKSEATAAAEFTGKTVMHDPMAMRPFMGYNFGKYLQHWLDLKTDSRKMPKIYHVNWFRKDSNNKFLWPGFGDNIRVIDWIIRRLDGEQEIGVETPIGTVPAKGSINLEGLGEVNWDELMSVPADYWKQDAQEIRKFLDEQVGEDLPEPVRAEMDAQEKRVQTL,not soluble
15,SMDSSALPDPGFQKITLSSSSEEYQKVWNLFNRTLPFYFVQKIERVQNLALWEVYQWQKGQMQKQNGGKAVDERQLFHGTSAIFVDAICQQNFDWRVCGVHGTSYGKGSYFARDAAYSHHYSKSDTQTHTMFLARVLVGEFVRGNASFVRPPAKEGWSNAFYDSCVNSVSDPSIFVIFEKHQVYPEYVIQYTTSSKPS,soluble
16,MVSIIIPIYNVQDYINDCLYSVYTQTYSEIEVILVNDCTPDNSMLIAHSNIEKLKKRFNVKIIDHKSNKGLSAARNSGVKEATGEWVYFLDSDDEITPDCIECFVRLAERYLSVDFIVGGIRVIGRNISYRLTTSEYVIGNDNILKCYISGMWYEMAWNKLIRKEYFVSNNLWFKEGLLHEDQLFSYQLATTALTMATVNKPTYIYKMRMSGAITSSNGRKNFDSFICILEYMVYSVMQKYSTSSVTLEYAQIIRFSYSILLSLYGKHNLTEMEVVNYELKVDRICRIVTFYKCKLPVPIQIKLTIIKLPQTMRKVLLKWHNKKIQKKLEHHHHHH,soluble
17,MGSDKIHHHHHHMKGAAFVKKEGLKQKALEIGRVPTHLKLEIEDYGGDDKRAHFCWADPQDENTGIIVELGPDGELESLSRDIEPESGERLSEEKLEDIMRQFVETHHPGALSAFVREENDRAYGDKVRFSYVQMEAGLPLPMSGFMADVSLSGEIVYFRYYGEAGSIIKPKRVADVEEALAFIKKDVEFDLLFEVLHRSVYKNGDDQPHLVYEPEGRAITVPADLVQEEQAVDDDDDYREPESFPLPLFEGIREKADPDSMIGIENGFVKEREADLGDGRIGIVWRNPDDPVYQPADKSMDSWFKGRTHQVLKTIYNKETGKLEGVMSFMEKKGPLTVTLAECEKIALRFLFALFPNADQYFRIRYDEKDEEENAVAGFTFEAHCHGVPLRFGQIRICVSRQTGYITVYMGPDIDPNKLATIDPVPAISVEQAKSIFWQHFKVELGWEREYGDDEEHSYRLVYKPVYPHFIDAHTGEPVFSIW,not soluble
18,MGSDKIHHHHHHMMGYNLTTPFLIYQWNFPMFPWDQIDTVLLDMDGTLLDLHFDNHFWLSLVPGTLSRMHGISAEAATSHVRAAYDKVAGTLEWYCLDYWERELGLDIMALHRTLVDRIQLRQDSMPFLTALADAGKRRILLTNAHPNSLALKLEHTELASGLDEMLSSHQTGHPKESPLFWQAVFARFELNPRRCLFIDDSEAILLAAKHAGVGFQLGISNPDSQQPNKVFHDFPAIHDYRLLLNE,not soluble
19,MKNTEIRKNIFPVGFYDDIHPDFSVNFQMNRCYTMTNDDVMLKEMREISPSIHNYEEFIEKFLELYNKALNEGHKLRAAYYLRTAEFYMTADHPQKQNYRKQFISLMQEYFNISDEQPYKVPYENGFLPAYRFTSEAPKGTIVMFGGFDSYVEEMFKMALFLKEAGYDVVFFDGPGQGSALEDYKIPMTHEWEKPVKSILDYFELDDVTLLGISLGGYLTVRAAAFEKRVHRVIADDILSNFYEVVLNTLPSQLKEKVNSLMSDGNEQEVNILFKDLMKKSLMVEWAINQGMHITGSKTPYEFLNKILLYNTSKISEKLEQDVLLMAAQEDHYIPLNQFFDQSKSLINVRSLTTRMFTRKETAQNHCQSGNLGLAFEVIANWIEQIQK,soluble
20,MTTHLPSTSQNGEEISAEQFNRIFHERNVIVLDCRSNGDSVKRANRFFCSLRLPALLQRRLMGGSMRLSTVPDLKDLNNSPDQCPEVLLIPGDSEQDEQLSAALARNLKSNHYRHFVLGEPVKTLLSQFPTLRDAADENWNTTFQMNSMPGQASGQQASSGPLLNLNQLRLEGEDQGGKQRAEFPVKLTNFLYLGNAETAKNRDVLKKYSISHVINVTSNLPNTFEEDPNMRYLRISADDNASHNLTKFFPEAISFIDDARRNDSACLVHCLAGISRSVTICLAYLMKTEMCTLDSAYEWVQKRNASIAPNFHFMGQLTDYEKMLGLNSNRVGVSRQAVNFDVHFFCIFKLKKKEENSPESRILAETAV,not soluble
21,MSLEDGPVTNPRQEEPQKVVKEEGFARGADVSWLTQMEAEGLKFYTPDENRQEMECMDLLRDYCGVNSIRLRVWVNPKDGWNNMNDVIVKAKRAERLGLRTMIDFHFSDTWADPGHQEMPEAWKELSFDDLKIALSEHVKSVLTALKAVGVTPEWVQVGNETTPGMMLPVGSVDNPEQLTALNNAGYDAVKAICPDAKVIVHLDAGNDQWVYNRMFDILQANGGKYDMIGMSLYPYWAEQEGKTGGWLKVADDCIANIKHVKQKYNKPVMICEIGMPYDQAEACKQLITKMMQADVEGIFYWEPQAPNGYNDGYNLGCFDNNAPTIALDAFKIEGHHHHHH,soluble
22,KRRIRQLELQVRMLEADKERLERELSRLRSEMSRLRQPPAFAGSVIEVLDDDRAIVQNYNGPRFVVRIAPWIDKSKLRPGTRVALDQRTMAIIEILPASKDPAVLGFEVVERPN,not soluble
